From publication PMC4786724, “NdhM Subunit Is Required for the Stability and the Function of NAD(P)H Dehydrogenase Complexes Involved in CO2 Uptake in Synechocystis sp. Strain PCC 6803* ^([image sbox.jpg])” (The Journal of Biological Chemistry, 2015)

Columns and labels:
[1] = target: T1, NdhH-His6 (Synechocystis sp. PCC 6803, UniProt P27724 1-394); assay: pull-down; GST-NdhM on glutathione-Sepharose 4B resin as bait, His-tagged Ndh subunits as prey; 2 h at 4 °C in 20 mM Tris-HCl pH 7.5, 100 mM NaCl, 0.1 mM EDTA, 0.2% Triton, 10% glycerol; washed five times with 300 mM NaCl, 0.5% Nonidet P-40; eluates blotted with anti-His antibody; settings: both partners purified
T1 construct: NdhH subunit of NDH-1, Synechocystis sp; PCC 6803; fragment containing ndhH cloned into pET28a; also called His-tagged NdhH; source: E. coli BL21(DE3) pLysS, purified (nickel column)
T1 sequence (looked up): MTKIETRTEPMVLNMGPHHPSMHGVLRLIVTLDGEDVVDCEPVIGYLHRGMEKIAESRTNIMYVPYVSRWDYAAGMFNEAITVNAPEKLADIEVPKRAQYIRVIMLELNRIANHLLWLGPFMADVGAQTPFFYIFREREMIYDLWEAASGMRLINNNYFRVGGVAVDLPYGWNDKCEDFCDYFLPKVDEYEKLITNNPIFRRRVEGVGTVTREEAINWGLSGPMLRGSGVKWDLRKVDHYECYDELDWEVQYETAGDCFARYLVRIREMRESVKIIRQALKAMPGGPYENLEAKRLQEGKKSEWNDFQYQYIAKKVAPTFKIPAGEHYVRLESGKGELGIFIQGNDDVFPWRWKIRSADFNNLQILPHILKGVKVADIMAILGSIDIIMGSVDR

[2] = target: T2, NdhI-His6 (Synechocystis sp. PCC 6803, UniProt P26525 1-193); assay: as above; settings: both partners purified
T2 construct: NdhI subunit of NDH-1, Synechocystis sp; PCC 6803; fragment containing ndhI cloned into pET28a; also called His-tagged NdhI; source: E. coli BL21(DE3) pLysS, purified (nickel column)
T2 sequence (P26525 whole entry, the tested form may be a part): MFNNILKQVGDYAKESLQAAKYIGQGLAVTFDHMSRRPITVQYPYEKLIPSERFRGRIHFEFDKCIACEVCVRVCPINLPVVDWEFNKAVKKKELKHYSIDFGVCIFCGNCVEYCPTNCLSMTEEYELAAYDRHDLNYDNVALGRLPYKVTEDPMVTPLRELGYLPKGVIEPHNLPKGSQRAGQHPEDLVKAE

binding result [1]: binds | binding result [2]: binds
B1: GST-NdhM (natural protein, Synechocystis sp. PCC 6803, UniProt P74338 1-121, looked up)
chain: MLVKSTTRHVRIFSAEVQGNELIPSNNVLTMDVDPDNEFVWNEDALQQVYRRFDELVESYSGEDLTDYNLRRIGSDLEHFIRDLLQAGKVSYNLDCRVLNYSMGLPKVENQETAGKYWLDN
notes: NdhM subunit of NDH-1, Synechocystis sp; PCC 6803, gene slr1623 (ndhM); fragment containing ndhM cloned into pGEX-4T-1; also called recombinant NdhM fused with GST; NdhM fused to GST; source: E. coli BL21(DE3) pLysS, purified (glutathione-Sepharose 4B column)
